Data published in publication PMC6420652.

Experiments:
AZIN (Homo sapiens) = AZIN (Homo sapiens) (UniProt O14977); assay: ultracentrifugation; conditions: cited from earlier work
[1] = biological target: antizyme-mRuby2 (antizyme with a C-terminal mRuby2 tag) (UniProt P54368); assay: FRET titration; conditions: parent: est. 24; read off a plot
Sequence of antizyme-mRuby2 (antizyme with a C-terminal mRuby2 tag) (P54368 whole entry): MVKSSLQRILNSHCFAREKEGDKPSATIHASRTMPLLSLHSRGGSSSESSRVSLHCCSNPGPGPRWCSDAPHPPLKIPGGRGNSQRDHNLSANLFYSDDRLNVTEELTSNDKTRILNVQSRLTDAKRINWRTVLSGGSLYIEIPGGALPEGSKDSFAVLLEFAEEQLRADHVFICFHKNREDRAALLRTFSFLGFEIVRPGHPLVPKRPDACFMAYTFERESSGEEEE

Sequence of Antizyme (P54368 whole entry): as above
Sequence of AZIN (Homo sapiens) (O14977 whole entry): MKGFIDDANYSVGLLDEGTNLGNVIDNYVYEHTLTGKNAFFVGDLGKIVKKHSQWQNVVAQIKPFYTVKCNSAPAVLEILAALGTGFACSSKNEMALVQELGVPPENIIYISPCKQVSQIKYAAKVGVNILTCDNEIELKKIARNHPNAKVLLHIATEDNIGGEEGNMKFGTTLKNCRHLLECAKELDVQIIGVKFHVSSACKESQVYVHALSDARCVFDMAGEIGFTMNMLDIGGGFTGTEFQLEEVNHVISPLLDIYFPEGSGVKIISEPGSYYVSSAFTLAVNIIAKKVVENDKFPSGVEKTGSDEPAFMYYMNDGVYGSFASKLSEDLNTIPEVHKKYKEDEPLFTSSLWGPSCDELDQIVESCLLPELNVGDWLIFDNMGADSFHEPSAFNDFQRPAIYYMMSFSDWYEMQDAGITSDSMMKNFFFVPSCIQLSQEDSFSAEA
Sequence of Clover-AZIN (antizyme inhibitor with an N-terminal Clover tag) (O14977 whole entry, stated change not applied): as the sequence (O14977 whole entry) above

Substance | Kd (AZIN (Homo sapiens)) | Kd [1]
Antizyme (from UniProt P54368) | 20 nM | –
Clover-AZIN (antizyme inhibitor with an N-terminal Clover tag) (from UniProt O14977) V137A | – | 11 nM
